Results on six molecules are retold here after patent US20210070885A1 (JIANGSU ALPHAMAB BIOPHARMACEUTICALS, published 2021).

Test [1] has as its target T1, HER2m1-Fc (human, UniProt P04626 23-652).
T1 construct: also called HERm1; Her2 ml
Kind of test: indirect ELISA as in Example 2-6, EC50 compared.

For test [2], the target named is T2, HER2m2-Fc (human, UniProt P04626 23-652).
T2 construct: also called HERm2; Herm2
Kind of test: indirect ELISA as in Example 2-6, EC50 compared.

B1: Tmab-CLC5 (antibody, human IgG1, kappa, V domains shown)
VH: not shown
VL: DIQMTQSPSSLSASVGDRVTITCKASQDVSIGVAWYQQKPGKAPKLLIYSASYRYTGVPSRFSGSGSGTDFTLTISSLQPEDFATYYCQQYYIYPYTFGQGTKVEIKR
On to B1, for which, in test [1], the “fold reduction of affinity against the original Trastuzumab” value was approximately 1 fold.

B2: Tmab-CLC6 (antibody, human IgG1, kappa, V domains shown)
VH: not shown
VL: DIQMTQSPSSLSASVGDRVTITCKASQDVSIGVAWYQQKPGKAPKLLIYSASYRYTGVPSRFSGSGSGTDFTLTISSLQPEDFATYYCQQYYITPYTFGQGTKVEIKR
B2: in test [1], the “fold reduction of affinity against the original Trastuzumab” value was approximately 1 fold.

B3: Pmab-CLC2 (antibody, human IgG1, kappa, V domains shown)
VH: EVQLVESGGGLVQPGGSLRLSCAASGFTFTDYTMDWVRQAPGKGLEWVADVNPNSGGSIYNQRFKGRFTLSVDRSKNTLYLQMNSLRAEDTAVYYCARNLGPSFYFDYWGQGTLVTVSS
VL: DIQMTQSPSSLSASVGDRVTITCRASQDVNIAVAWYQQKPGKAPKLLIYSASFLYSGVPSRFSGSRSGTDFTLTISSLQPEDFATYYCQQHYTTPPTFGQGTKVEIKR
notes: Pertuzumab heavy chain with common light chain CLC2
For the molecule B3, in test [2], the binding result is “binds”.

B4: Pmab-CLC3 (antibody, human IgG1, kappa, V domains shown)
VH: EVQLVESGGGLVQPGGSLRLSCAASGFTFTDYTMDWVRQAPGKGLEWVADVNPNSGGSIYNQRFKGRFTLSVDRSKNTLYLQMNSLRAEDTAVYYCARNLGPSFYFDYWGQGTLVTVSS
VL: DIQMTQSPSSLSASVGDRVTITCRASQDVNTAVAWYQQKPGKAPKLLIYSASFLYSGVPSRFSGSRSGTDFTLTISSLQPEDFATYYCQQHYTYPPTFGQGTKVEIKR
notes: Pertuzumab heavy chain with common light chain CLC3
For the molecule B4, the binding result in test [2] was “binds”.

B5: Pmab-CLC4 (antibody, human IgG1, kappa, V domains shown)
VH: EVQLVESGGGLVQPGGSLRLSCAASGFTFTDYTMDWVRQAPGKGLEWVADVNPNSGGSIYNQRFKGRFTLSVDRSKNTLYLQMNSLRAEDTAVYYCARNLGPSFYFDYWGQGTLVTVSS
VL: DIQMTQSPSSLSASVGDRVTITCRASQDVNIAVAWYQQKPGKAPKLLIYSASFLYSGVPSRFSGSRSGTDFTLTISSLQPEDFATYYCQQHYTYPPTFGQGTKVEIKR
notes: Pertuzumab heavy chain with common light chain CLC4
Take B5: in test [2], the binding result is listed as “binds”.

B6: Pmab-CLC6 (antibody, human IgG1, kappa, V domains shown)
VH: EVQLVESGGGLVQPGGSLRLSCAASGFTFTDYTMDWVRQAPGKGLEWVADVNPNSGGSIYNQRFKGRFTLSVDRSKNTLYLQMNSLRAEDTAVYYCARNLGPSFYFDYWGQGTLVTVSS
VL: DIQMTQSPSSLSASVGDRVTITCKASQDVSIGVAWYQQKPGKAPKLLIYSASYRYTGVPSRFSGSGSGTDFTLTISSLQPEDFATYYCQQYYITPYTFGQGTKVEIKR
notes: Pertuzumab heavy chain with common light chain CLC6 (Y94T)
In the case of B6, the binding result in test [2] was “binds”.
